Our source for the abundance fitness values is the Human Domainome abundance scans (Beltran et al. 2025).

± gives the uncertainty stated by the source.

The data set in a line: abundance fitness (aPCA) (normalised: wild type 0, dead -1); higher = more abundant; growth selection in yeast, the domain comes from the species named. The conditions noted are these: Homo sapiens.
The substance “BAG family molecular chaperone regulator 3 E57G, O95817” registered an abundance fitness of -0.237 ± 0.12.
“BAG family molecular chaperone regulator 3 E57H, O95817” had an abundance fitness of -0.326 ± 0.38.
Then “BAG family molecular chaperone regulator 3 E57I, O95817”, with -0.566 ± 0.36.
“BAG family molecular chaperone regulator 3 E57K, O95817” gave an abundance fitness of -0.11 ± 0.24.
For the substance “BAG family molecular chaperone regulator 3 E57L, O95817”, the abundance fitness is -0.468 ± 0.094.
Then “BAG family molecular chaperone regulator 3 E57M, O95817”, with -0.186 ± 0.24; and “BAG family molecular chaperone regulator 3 E57N, O95817”, with 0.759 ± 0.22; and “BAG family molecular chaperone regulator 3 E57P, O95817”, with -0.027 ± 0.16.
In turn, “BAG family molecular chaperone regulator 3 E57Q, O95817” displayed an abundance fitness of -0.46 ± 0.33.
“BAG family molecular chaperone regulator 3 E57R, O95817” displayed an abundance fitness of -0.119 ± 0.081.
Turning to “BAG family molecular chaperone regulator 3 E57S, O95817”, the abundance fitness is -0.001 ± 0.11.
In the case of “BAG family molecular chaperone regulator 3 E57T, O95817”, the abundance fitness was -0.118 ± 0.21.
“BAG family molecular chaperone regulator 3 E57V, O95817” returned an abundance fitness of -0.721 ± 0.21.
Regarding “BAG family molecular chaperone regulator 3 E57W, O95817”, the abundance fitness was -0.423 ± 0.29.
“BAG family molecular chaperone regulator 3 E57Y, O95817” yielded an abundance fitness of -0.44 ± 0.13.
The result for “BAG family molecular chaperone regulator 3 F38A, O95817” reads -0.181 ± 0.15; that for “BAG family molecular chaperone regulator 3 F38D, O95817”, -0.57 ± 0.14; that for “BAG family molecular chaperone regulator 3 F38E, O95817”, -0.356 ± 0.13.
With “BAG family molecular chaperone regulator 3 F38G, O95817”, the abundance fitness was -0.503 ± 0.14.
For the substance “BAG family molecular chaperone regulator 3 F38H, O95817”, the abundance fitness is -0.014 ± 0.15.
Turning to “BAG family molecular chaperone regulator 3 F38I, O95817”, the abundance fitness was -0.692 ± 0.34.
The result for “BAG family molecular chaperone regulator 3 F38K, O95817” reads -0.31 ± 0.088; that for “BAG family molecular chaperone regulator 3 F38L, O95817”, 0.326 ± 0.072.
The substance “BAG family molecular chaperone regulator 3 F38M, O95817” gave an abundance fitness of 0.197 ± 0.14.
Regarding “BAG family molecular chaperone regulator 3 F38N, O95817”, the abundance fitness was -0.724 ± 0.46.
For the substance “BAG family molecular chaperone regulator 3 F38Q, O95817”, the abundance fitness came out at 0.571 ± 0.22.
The substance “BAG family molecular chaperone regulator 3 F38R, O95817” yielded an abundance fitness of -0.149 ± 0.1.
Substance “BAG family molecular chaperone regulator 3 F38S, O95817” yielded an abundance fitness of -0.243 ± 0.069.
“BAG family molecular chaperone regulator 3 F38T, O95817” had an abundance fitness of -0.622 ± 0.29.
In the case of “BAG family molecular chaperone regulator 3 F38V, O95817”, the abundance fitness was -0.092 ± 0.14.
The result for “BAG family molecular chaperone regulator 3 F38W, O95817” reads -0.665 ± 0.25.
“BAG family molecular chaperone regulator 3 F39A, O95817” came in with an abundance fitness of -0.89 ± 0.18.
Substance “BAG family molecular chaperone regulator 3 F39E, O95817” came in with an abundance fitness of -0.154 ± 0.085.
“BAG family molecular chaperone regulator 3 F39G, O95817” gave an abundance fitness of -0.436 ± 0.067.
“BAG family molecular chaperone regulator 3 F39H, O95817” returned an abundance fitness of -0.615 ± 0.39.
Substance “BAG family molecular chaperone regulator 3 F39L, O95817” showed an abundance fitness of -0.528 ± 0.14.
For the substance “BAG family molecular chaperone regulator 3 F39N, O95817”, the abundance fitness was -0.442 ± 0.29.
“BAG family molecular chaperone regulator 3 F39P, O95817” registered an abundance fitness of -0.639 ± 0.19.
“BAG family molecular chaperone regulator 3 F39Q, O95817” registered an abundance fitness of -0.633 ± 0.5.
The substance “BAG family molecular chaperone regulator 3 F39R, O95817” came in with an abundance fitness of -0.618 ± 0.068.
“BAG family molecular chaperone regulator 3 F39S, O95817” gave an abundance fitness of -0.729 ± 0.19.
The substance “BAG family molecular chaperone regulator 3 F39T, O95817” yielded an abundance fitness of -0.587 ± 0.26.
“BAG family molecular chaperone regulator 3 F39V, O95817” showed an abundance fitness of -0.754 ± 0.11.
In the case of “BAG family molecular chaperone regulator 3 F39W, O95817”, the abundance fitness is -0.42 ± 0.19.
Turning to “BAG family molecular chaperone regulator 3 F39Y, O95817”, the abundance fitness was -0.244 ± 0.24.
In turn, “BAG family molecular chaperone regulator 3 G15C, O95817” displayed an abundance fitness of 0.649 ± 0.079.
“BAG family molecular chaperone regulator 3 G15D, O95817” had an abundance fitness of 1.2 ± 0.092.
The result for “BAG family molecular chaperone regulator 3 G15E, O95817” reads 1 ± 0.094.
With “BAG family molecular chaperone regulator 3 G15F, O95817”, the abundance fitness came out at 0.641 ± 0.083.
Take “BAG family molecular chaperone regulator 3 G15H, O95817”: the abundance fitness worked out at 1.18 ± 0.16.
Then “BAG family molecular chaperone regulator 3 G15I, O95817”, with 0.795 ± 0.18; and “BAG family molecular chaperone regulator 3 G15K, O95817”, with 1.15 ± 0.12; and “BAG family molecular chaperone regulator 3 G15L, O95817”, with 0.766 ± 0.074.
As to “BAG family molecular chaperone regulator 3 G15M, O95817”, the abundance fitness amounted to 0.142 ± 0.17.
As to “BAG family molecular chaperone regulator 3 G15N, O95817”, the abundance fitness is 1.04 ± 0.089.
The result for “BAG family molecular chaperone regulator 3 G15P, O95817” reads 0.603 ± 0.15.
Consider “BAG family molecular chaperone regulator 3 G15Q, O95817”, for which the abundance fitness turned out to be 0.828 ± 0.094.
The result for “BAG family molecular chaperone regulator 3 G15R, O95817” reads 0.737 ± 0.059; that for “BAG family molecular chaperone regulator 3 G15S, O95817”, 0.814 ± 0.067; that for “BAG family molecular chaperone regulator 3 G15T, O95817”, 0.856 ± 0.082.
Then “BAG family molecular chaperone regulator 3 G15V, O95817”, with 0.89 ± 0.078.
With “BAG family molecular chaperone regulator 3 G15W, O95817”, the abundance fitness is -0.481 ± 0.19.
Consider “BAG family molecular chaperone regulator 3 G15Y, O95817”, for which the abundance fitness came to 0.874 ± 0.075.
“BAG family molecular chaperone regulator 3 G17A, O95817” came in with an abundance fitness of 0.55 ± 0.09.
Regarding “BAG family molecular chaperone regulator 3 G17C, O95817”, the abundance fitness is 0.731 ± 0.11.
Then “BAG family molecular chaperone regulator 3 G17D, O95817”, with 0.825 ± 0.07; and “BAG family molecular chaperone regulator 3 G17E, O95817”, with 0.915 ± 0.077; and “BAG family molecular chaperone regulator 3 G17F, O95817”, with -0.177 ± 0.23.
Turning to “BAG family molecular chaperone regulator 3 G17H, O95817”, the abundance fitness is 1.03 ± 0.1.
Substance “BAG family molecular chaperone regulator 3 G17I, O95817” showed an abundance fitness of 0.73 ± 0.092.
Consider “BAG family molecular chaperone regulator 3 G17K, O95817”, for which the abundance fitness is 0.564 ± 0.093.
Then “BAG family molecular chaperone regulator 3 G17L, O95817”, with 0.282 ± 0.087; and “BAG family molecular chaperone regulator 3 G17M, O95817”, with 0.25 ± 0.21; and “BAG family molecular chaperone regulator 3 G17N, O95817”, with 0.913 ± 0.13.
Turning to “BAG family molecular chaperone regulator 3 G17P, O95817”, the abundance fitness came to 1.15 ± 0.12.
Then “BAG family molecular chaperone regulator 3 G17Q, O95817”, with 0.968 ± 0.098.
For the substance “BAG family molecular chaperone regulator 3 G17R, O95817”, the abundance fitness is 0.791 ± 0.06.
Then “BAG family molecular chaperone regulator 3 G17S, O95817”, with 0.82 ± 0.073; and “BAG family molecular chaperone regulator 3 G17T, O95817”, with 0.943 ± 0.083.
On to “BAG family molecular chaperone regulator 3 G17W, O95817”, for which the abundance fitness is 0.329 ± 0.083.
“BAG family molecular chaperone regulator 3 G17Y, O95817” gave an abundance fitness of 0.213 ± 0.22.
